Data as given in the supplement of paper PMC9233669.
Variants at the floor of the assay were thinned out.

How the values were obtained:
biotinyl-Phe-oxazolone = assay: self-aminoacylation, catalytic enhancement (BFO) (fold over background); higher = more active; k-Seq, kA / k0A0; sequences stand for … in GGGAAUGGAUCCACAUCUACGAAUUC…UUCACUGCAGACUUGACGAAGCUG
Summary of the method: (§1)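 Each biotinyl-aminoacyl-oxazolone, at 2–1250 μM, was incubated with mutagenized RNA pools (0.43 μM) carrying a 21-nt variable region. The 50 μL reactions contained HEPES/NaCl/KCl/MgCl2/CaCl2 buffer with 5% acetonitrile at pH 6.9–7.0 and ran for 90 minutes at room temperature. After streptavidin capture, RNA was measured by qPCR in triplicate and by Illumina sequencing, and catalytic enhancement was calculated as median kA over the uncatalyzed rate from a pseudo-first-order fit of per-sequence fraction reacted.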

biotinyl-Ile-oxazolone = assay: self-aminoacylation, catalytic enhancement (BIO) (fold over background); higher = more active; k-Seq, kA / k0A0; sequences stand for … in GGGAAUGGAUCCACAUCUACGAAUUC…UUCACUGCAGACUUGACGAAGCUG
Summary of the method: as §1

biotinyl-Met-oxazolone = assay: self-aminoacylation, catalytic enhancement (BMO) (fold over background); higher = more active; k-Seq, kA / k0A0; sequences stand for … in GGGAAUGGAUCCACAUCUACGAAUUC…UUCACUGCAGACUUGACGAAGCUG
Summary of the method: as §1

biotinyl-Val-oxazolone = assay: self-aminoacylation, catalytic enhancement (BVO) (fold over background); higher = more active; k-Seq, kA / k0A0; sequences stand for … in GGGAAUGGAUCCACAUCUACGAAUUC…UUCACUGCAGACUUGACGAAGCUG
Summary of the method: as §1

biotinyl-Leu-oxazolone = assay: self-aminoacylation, catalytic enhancement (BLO) (fold over background); higher = more active; k-Seq, kA / k0A0; sequences stand for … in GGGAAUGGAUCCACAUCUACGAAUUC…UUCACUGCAGACUUGACGAAGCUG
Summary of the method: as §1

biotinyl-Trp-oxazolone = assay: self-aminoacylation, catalytic enhancement (BWO) (fold over background); higher = more active; k-Seq, kA / k0A0; sequences stand for … in GGGAAUGGAUCCACAUCUACGAAUUC…UUCACUGCAGACUUGACGAAGCUG
Summary of the method: as §1

Sequence | self-aminoacylation (biotinyl-Phe-oxazolone) | self-aminoacylation (biotinyl-Ile-oxazolone) | self-aminoacylation (biotinyl-Met-oxazolone) | self-aminoacylation (biotinyl-Val-oxazolone) | self-aminoacylation (biotinyl-Leu-oxazolone) | self-aminoacylation (biotinyl-Trp-oxazolone)
CUACUUCAAACAGUCGGUCUC [Fam1A.1 aminoacylation ribozyme variant] | 0.732 | 0.903 | 0.765 | 0.8 | 1.02 | 0.456
CUACUUCAAACAGUGGGUCUG [Fam1A.1 aminoacylation ribozyme variant] | 0.834 | 0.995 | 0.764 | 0.823 | 0.935 | 0.989
CUACUUCAAACAUGCGGUCUG [Fam1A.1 aminoacylation ribozyme variant] | 3.21 | 1.27 | 1.39 | 1.34 | 1.61 | 0.769
CUACUUCAAACAUUCGCUCUG [Fam1A.1 aminoacylation ribozyme variant] | 3.16 | 1.07 | 1.12 | 0.985 | 1.24 | 0.81
CUACUUCAAACAUUCGGUCCG [Fam1A.1 aminoacylation ribozyme variant] | 0.323 | 0.823 | 0.978 | 0.884 | 0.959 | 1.52
CUACUUCAAACCAUCAGUCUG [Fam1A.1 aminoacylation ribozyme variant] | 1.08 | 0.847 | 0.695 | 0.768 | 0.762 | 0.593
CUACUUCAAACCAUCGGUCUG [Fam1A.1 aminoacylation ribozyme variant] | 0.956 | 0.794 | 0.702 | 0.833 | 0.661 | 0.673
CUACUUCAAACCAUGGGUCUG [Fam1A.1 aminoacylation ribozyme variant] | 0.455 | 0.966 | 0.765 | 0.776 | 0.827 | 0.564
CUACUUCAAACCAUUGGUCUG [Fam1A.1 aminoacylation ribozyme variant] | 1.03 | 0.883 | 0.726 | 0.891 | 0.782 | 0.564
CUACUUCAAACGAUCGGUAUG [Fam1A.1 aminoacylation ribozyme variant] | 0.588 | 0.544 | 0.585 | 0.675 | 0.591 | 0.727
CUACUUCAAACGAUCGGUCAG [Fam1A.1 aminoacylation ribozyme variant] | 0.808 | 0.621 | 0.36 | 0.535 | 0.566 | 0.625
CUACUUCAAACGAUCGUUCUG [Fam1A.1 aminoacylation ribozyme variant] | 0.639 | 0.493 | 0.442 | 0.632 | 0.423 | 0.447
CUACUUCAAACUAACGGUCUG [Fam1A.1 aminoacylation ribozyme variant] | 0.924 | 0.778 | 0.787 | 0.75 | 0.796 | 0.665
CUACUUCAAACUAUCAGUCUG [Fam1A.1 aminoacylation ribozyme variant] | 1.25 | 1.06 | 0.975 | 1.05 | 0.801 | 0.813
CUACUUCAAACUAUCCGUCUG [Fam1A.1 aminoacylation ribozyme variant] | 0.844 | 0.955 | 0.889 | 1.08 | 0.936 | 0.852
CUACUUCAAACUAUCGGUCGG [Fam1A.1 aminoacylation ribozyme variant] | 0.997 | 1.05 | 1.02 | 0.893 | 1.01 | 1.05
CUACUUCAAACUAUCGGUCUC [Fam1A.1 aminoacylation ribozyme variant] | 1.19 | 0.833 | 0.747 | 0.885 | 0.759 | 0.598
CUACUUCAAACUAUCUGUCUG [Fam1A.1 aminoacylation ribozyme variant] | 1.09 | 0.869 | 0.846 | 0.867 | 0.767 | 0.738
CUACUUCAAAGAAUCGGUCAG [Fam1A.1 aminoacylation ribozyme variant] | 1.48 | 0.652 | 0.574 | 0.658 | 0.601 | 0.818
CUACUUCAAAGAAUCGGUCCG [Fam1A.1 aminoacylation ribozyme variant] | 0.351 | 0.718 | 0.638 | 0.607 | 0.866 | 0.384
CUACUUCAAAGAAUCGGUCUG [Fam1A.1 aminoacylation ribozyme variant] | 6.52 | 0.777 | 0.759 | 0.76 | 0.883 | 4.78

Sequence | self-aminoacylation (biotinyl-Phe-oxazolone) | self-aminoacylation (biotinyl-Ile-oxazolone) | self-aminoacylation (biotinyl-Met-oxazolone) | self-aminoacylation (biotinyl-Val-oxazolone) | self-aminoacylation (biotinyl-Leu-oxazolone) | self-aminoacylation (biotinyl-Trp-oxazolone)
CUACUUCAAAGACUCGGUCUG [Fam1A.1 aminoacylation ribozyme variant] | 3.52 | 1.12 | 1.16 | 1.2 | 1.01 | 1.35
CUACUUCAAAGAGUCGGUCUG [Fam1A.1 aminoacylation ribozyme variant] | 0.46 | 0.695 | 1.13 | 0.835 | 0.849 | 0.754
CUACUUCAAAUAAUCGGUCGG [Fam1A.1 aminoacylation ribozyme variant] | 6.6 | 1.07 | 0.909 | 0.832 | 1.13 | 5.93
CUACUUCAAAUAAUCGGUCUA [Fam1A.1 aminoacylation ribozyme variant] | 7.72 | 0.795 | 0.659 | 0.78 | 0.727 | 3.51
CUACUUCAAAUUAUCGGUCUG [Fam1A.1 aminoacylation ribozyme variant] | 0.806 | 1.12 | 1.01 | 1.11 | 0.945 | 0.849
CUACUUCAACCAAUCGAUCUG [Fam1A.1 aminoacylation ribozyme variant] | 1.98 | 0.763 | 0.62 | 0.665 | 0.598 | 1.04
CUACUUCAACCAAUCGCUCUG [Fam1A.1 aminoacylation ribozyme variant] | 1.4 | 0.872 | 0.806 | 0.729 | 0.843 | 1.43
CUACUUCAACCAAUCGGUCUG [Fam1A.1 aminoacylation ribozyme variant] | 33.1 | 0.988 | 1.07 | 1.04 | 1.48 | 18.7
CUACUUCAACCAAUCUGUCUG [Fam1A.1 aminoacylation ribozyme variant] | 2.12 | 0.597 | 0.504 | 0.592 | 0.485 | 0.777
CUACUUCAACCAGUCGGUCUG [Fam1A.1 aminoacylation ribozyme variant] | 0.542 | 0.712 | 0.662 | 0.833 | 0.788 | 0.564
CUACUUCAAGCAAGCGGUCUG [Fam1A.1 aminoacylation ribozyme variant] | 0.897 | 1.12 | 0.867 | 0.854 | 0.958 | 0.849
CUACUUCAAGCAAUCCGUCUG [Fam1A.1 aminoacylation ribozyme variant] | 1.86 | 1 | 0.833 | 1.17 | 0.941 | 1.25
CUACUUCAAGCAAUCGGACUG [Fam1A.1 aminoacylation ribozyme variant] | 4.71 | 0.86 | 0.714 | 0.861 | 1.04 | 2.58
CUACUUCAAGCAAUCGGCCUG [Fam1A.1 aminoacylation ribozyme variant] | 18.9 | 1.85 | 1.74 | 1.6 | 2.44 | 16.4
CUACUUCAAGCAAUGGGUCUG [Fam1A.1 aminoacylation ribozyme variant] | 0.863 | 1.02 | 0.934 | 0.998 | 0.852 | 1.09
CUACUUCAAUCAAUCCGUCUG [Fam1A.1 aminoacylation ribozyme variant] | 0.657 | 0.758 | 0.664 | 0.672 | 0.694 | 0.695
CUACUUCAAUCAAUCGGGCUG [Fam1A.1 aminoacylation ribozyme variant] | 8.36 | 1.41 | 1.31 | 1.24 | 1.38 | 7.13
CUACUUCAAUCAAUCGGUAUG [Fam1A.1 aminoacylation ribozyme variant] | 10.8 | 0.797 | 0.961 | 0.848 | 0.88 | 6.33
CUACUUCAAUCAAUCGUUCUG [Fam1A.1 aminoacylation ribozyme variant] | 0.629 | 0.491 | 0.379 | 0.596 | 0.472 | 0.428
CUACUUCAAUCCAUCGGUCUG [Fam1A.1 aminoacylation ribozyme variant] | 0.866 | 0.857 | 0.738 | 0.821 | 0.737 | 0.728
CUACUUCACACAAACGGUCUG [Fam1A.1 aminoacylation ribozyme variant] | 1.07 | 0.771 | 0.626 | 0.746 | 0.746 | 0.616
